Laboratory results taken from PMC4672726.

Molecular target: hemagglutinin (HA)–tagged FERONIA (FER-HA) (Arabidopsis thaliana) (UniProt Q9SCZ4)
Assay: co-IP

hemagglutinin (HA)–tagged FERONIA (FER-HA) (Arabidopsis thaliana), sequence (Q9SCZ4 28-895): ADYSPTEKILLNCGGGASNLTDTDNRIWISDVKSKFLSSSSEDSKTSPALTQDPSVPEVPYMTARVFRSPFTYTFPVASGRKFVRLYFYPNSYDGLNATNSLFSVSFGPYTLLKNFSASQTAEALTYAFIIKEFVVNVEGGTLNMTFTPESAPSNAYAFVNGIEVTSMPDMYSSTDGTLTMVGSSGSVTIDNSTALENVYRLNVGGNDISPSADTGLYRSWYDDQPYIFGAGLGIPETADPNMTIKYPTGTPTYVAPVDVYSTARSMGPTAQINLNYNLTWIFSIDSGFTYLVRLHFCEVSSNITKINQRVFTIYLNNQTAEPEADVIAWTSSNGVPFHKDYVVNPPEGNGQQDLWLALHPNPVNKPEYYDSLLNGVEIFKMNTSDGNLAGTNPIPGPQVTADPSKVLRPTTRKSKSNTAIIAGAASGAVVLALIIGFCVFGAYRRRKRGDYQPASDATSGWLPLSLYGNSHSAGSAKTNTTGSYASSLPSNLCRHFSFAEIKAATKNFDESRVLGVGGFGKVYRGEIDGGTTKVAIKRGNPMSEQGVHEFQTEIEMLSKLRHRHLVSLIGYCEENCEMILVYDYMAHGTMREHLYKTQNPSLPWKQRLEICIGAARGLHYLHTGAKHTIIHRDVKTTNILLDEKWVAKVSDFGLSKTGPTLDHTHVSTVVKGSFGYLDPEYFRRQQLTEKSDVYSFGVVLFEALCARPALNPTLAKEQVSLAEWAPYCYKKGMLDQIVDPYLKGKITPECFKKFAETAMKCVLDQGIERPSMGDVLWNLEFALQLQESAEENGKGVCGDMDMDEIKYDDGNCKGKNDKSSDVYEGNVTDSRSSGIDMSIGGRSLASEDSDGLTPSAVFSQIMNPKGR

“HisRALF (RALF, rapid alkalinization factor, N-terminal 6×His fusion peptide) (from UniProt Q9SRY3 72-120)” showed a fold binding over the inactive analog HisRALF(Δ2–8) of 4.5 to 6 fold.
